Data taken from patent US20190389958A1 (published 2019).

Key:
human CXCR4 [1] = molecular target: T1, human CXCR4 (human, UniProt P61073 1-352); experiment: flow cytometry; Batch1
T1 chain: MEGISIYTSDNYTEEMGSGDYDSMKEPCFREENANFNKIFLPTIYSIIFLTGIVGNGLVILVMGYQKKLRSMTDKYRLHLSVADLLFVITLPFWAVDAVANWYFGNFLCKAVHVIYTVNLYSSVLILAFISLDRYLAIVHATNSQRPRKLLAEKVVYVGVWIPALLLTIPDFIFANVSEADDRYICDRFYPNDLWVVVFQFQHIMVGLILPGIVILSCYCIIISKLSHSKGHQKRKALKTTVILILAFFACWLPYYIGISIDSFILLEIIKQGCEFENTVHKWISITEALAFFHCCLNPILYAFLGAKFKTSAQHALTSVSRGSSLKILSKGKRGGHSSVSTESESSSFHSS

human CXCR4 [2] = molecular target: T1, human CXCR4; experiment: flow cytometry; Batch2
human CXCR4 [3] = molecular target: T1, human CXCR4; experiment: flow cytometry; Batch2
human CXCR4 [4] = molecular target: T1, human CXCR4; experiment: flow cytometry; Batch1
human CXCR4 [5] = molecular target: T1, human CXCR4; experiment: flow cytometry
human CXCR4 [6] = molecular target: T1, human CXCR4; experiment: flow cytometry
human CXCR4 [7] = molecular target: T1, human CXCR4; experiment: flow cytometry; Batch1
human CXCR4 [8] = molecular target: T1, human CXCR4; experiment: flow cytometry; Batch2

B1: V62.1-R108H-m43-m38 (antibody, V domains shown)
VH: EVQLLESGGGLVQPGGSLRLSCAASGFTFSSYAMSWVRQAPGKGLEWVSAISGSGGGSTRYADSVKGRFTISRDNSKNTLYLQMNSLRAEDTAVYYCARQGKTRVYGYHWHGYGSTHALDYWGQGTLVTVSS
VL: EIVLTQSPGTLSLSPGERATLSCRASQSVSSSYLAWYQQKPGQAPRLLIYGASSRATGIPDRFSGSGSGTDFTLTISRLEPEDFAVYYCQQWSSDSVTFGQGTKVEIKR
EC50 (human CXCR4 [1]): ~0.6 nM | EC50 (human CXCR4 [2]): ~1.1 nM

B2: V62.1-R108H-m47-m38 (antibody, V domains shown)
VH: EVQLLESGGGLVQPGGSLRLSCAASGFTFSSYAMSWVRQAPGKGLEWVSAISGSGGTRYADSVKGRFTISRDNSKNTLYLQMNSLRAEDTAVYYCARQGKTRVYGYHWHGYGSTHALDYWGQGTLVTVSS
VL: B1 VL
EC50 (human CXCR4 [3]): ~0.8 nM | EC50 (human CXCR4 [4]): ~0.7 nM

B3: V62.1-R108H (antibody, V domains shown)
VH: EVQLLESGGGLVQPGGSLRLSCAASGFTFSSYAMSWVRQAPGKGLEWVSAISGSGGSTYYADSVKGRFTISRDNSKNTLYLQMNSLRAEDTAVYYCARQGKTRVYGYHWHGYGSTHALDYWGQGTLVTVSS
VL: EIVLTQSPGTLSLSPGERATLSCRASQSVSSSYLAWYQQKPGQAPRLLIYGASSRATGIPDRFSGSGSGTDFTLTISRLEPEDFAVYYCQQSDYSYPFTFGQGTKVEIKR
EC50 (human CXCR4 [5]): ~1.8 nM

B4: V62.1 (antibody, V domains shown)
VH: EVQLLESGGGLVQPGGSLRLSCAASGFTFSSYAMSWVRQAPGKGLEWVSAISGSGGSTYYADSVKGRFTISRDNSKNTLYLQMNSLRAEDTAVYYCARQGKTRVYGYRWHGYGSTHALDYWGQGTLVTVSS
VL: B3 VL
EC50 (human CXCR4 [6]): ~2.2 nM

B5: V62.1-R108H-m80 (antibody, V domains shown)
VH: EVQLLESGGGLVQPGGSLRLSCAASGFTISPYSITWVRQAPGKGLEWVSQINSYNGKTYYADSVKGRFTISRDNSKNTLYLQMNSLRAEDTAVYYCARQGKTRVYGYHWHGYGSTHALDYWGQGTLVTVSS
VL: B3 VL
EC50 (human CXCR4 [7]): ~1.2 nM | EC50 (human CXCR4 [8]): ~1.2 nM
